# Laboratory results from IntAct's records for PubMed 25416956.
# B1: Proton-coupled zinc antiporter SLC30A8 (Homo sapiens), Q8IWU4 (parent)
# chain: MEFLERTYLVNDKAAKMYAFTLESVELQQKPVNKDQCPRERPEELESGGMYHCHSGSKPTEKGANEYAYAKWKLCSASAICFIFMIAEVVGGHIAGSLAVVTDAAHLLIDLTSFLLSLFSLWLSSKPPSKRLTFGWHRAEILGALLSILCIWVVTGVLVYLACERLLYPDYQIQATVMIIVSSCAVAANIVLTVVLHQRCLGHNHKEVQANASVRAAFVHALGDLFQSISVLISALIIYFKPEYKIADPICTFIFSILVLASTITILKDFSILLMEGVPKSLNYSGVKELILAVDGVLSVHSLHIWSLTMNQVILSAHVATAASRDSQVVRREIAKALSKSFTMHSLTIQMESPVDQDPDCLFCEDPCD
# partner: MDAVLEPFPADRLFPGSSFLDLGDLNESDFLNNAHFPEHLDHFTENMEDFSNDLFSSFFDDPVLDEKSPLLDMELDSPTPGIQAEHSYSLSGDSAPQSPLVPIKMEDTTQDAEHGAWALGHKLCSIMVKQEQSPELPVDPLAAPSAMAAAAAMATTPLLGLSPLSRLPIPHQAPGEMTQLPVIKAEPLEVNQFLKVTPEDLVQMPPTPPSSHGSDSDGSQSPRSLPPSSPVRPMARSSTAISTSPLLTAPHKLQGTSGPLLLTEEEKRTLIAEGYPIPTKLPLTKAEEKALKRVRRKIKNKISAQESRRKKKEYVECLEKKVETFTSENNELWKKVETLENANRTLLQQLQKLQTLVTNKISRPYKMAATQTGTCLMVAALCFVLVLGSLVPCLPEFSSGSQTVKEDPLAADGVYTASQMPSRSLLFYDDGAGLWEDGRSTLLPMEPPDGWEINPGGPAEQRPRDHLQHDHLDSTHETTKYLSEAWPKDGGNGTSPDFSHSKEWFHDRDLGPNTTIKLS
# B2: Keratin, type II cytoskeletal 2 epidermal (Homo sapiens), P35908 (parent)
# chain: MSCQISCKSRGRGGGGGGFRGFSSGSAVVSGGSRRSTSSFSCLSRHGGGGGGFGGGGFGSRSLVGLGGTKSISISVAGGGGGFGAAGGFGGRGGGFGGGSSFGGGSGFSGGGFGGGGFGGGRFGGFGGPGGVGGLGGPGGFGPGGYPGGIHEVSVNQSLLQPLNVKVDPEIQNVKAQEREQIKTLNNKFASFIDKVRFLEQQNQVLQTKWELLQQMNVGTRPINLEPIFQGYIDSLKRYLDGLTAERTSQNSELNNMQDLVEDYKKKYEDEINKRTAAENDFVTLKKDVDNAYMIKVELQSKVDLLNQEIEFLKVLYDAEISQIHQSVTDTNVILSMDNSRNLDLDSIIAEVKAQYEEIAQRSKEEAEALYHSKYEELQVTVGRHGDSLKEIKIEISELNRVIQRLQGEIAHVKKQCKNVQDAIADAEQRGEHALKDARNKLNDLEEALQQAKEDLARLLRDYQELMNVKLALDVEIATYRKLLEGEECRMSGDLSSNVTVSVTSSTISSNVASKAAFGGSGGRGSSSGGGYSSGSSSYGSGGRQSGSRGGSGGGGSISGGGYGSGGGSGGRYGSGGGSKGGSISGGGYGSGGGKHSSGGGSRGGSSSGGGYGSGGGGSSSVKGSSGEAFGSSVTFSFR
# partner: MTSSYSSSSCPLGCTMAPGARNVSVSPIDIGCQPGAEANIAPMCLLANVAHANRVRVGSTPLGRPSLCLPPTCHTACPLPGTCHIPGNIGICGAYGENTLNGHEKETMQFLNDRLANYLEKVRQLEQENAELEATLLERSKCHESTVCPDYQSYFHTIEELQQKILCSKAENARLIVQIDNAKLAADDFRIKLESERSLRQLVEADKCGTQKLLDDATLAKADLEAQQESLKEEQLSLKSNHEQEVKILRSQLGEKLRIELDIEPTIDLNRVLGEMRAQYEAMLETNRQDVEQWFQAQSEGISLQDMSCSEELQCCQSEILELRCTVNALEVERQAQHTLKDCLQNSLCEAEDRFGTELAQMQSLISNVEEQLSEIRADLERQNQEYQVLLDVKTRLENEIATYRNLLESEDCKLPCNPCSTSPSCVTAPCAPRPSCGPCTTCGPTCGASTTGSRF
# B3: Keratin, type II cytoskeletal 2 epidermal (Homo sapiens), P35908 (parent)
# chain: B2 chain
# B4: EF-hand domain-containing protein 1 (Homo sapiens), Q5JVL4 (parent)
# chain: MVSNPVHGLPFLPGTSFKDSTKTAFHRSQTLSYRNGYAIVRRPTVGIGGDRLQFNQLSQAELDELASKAPVLTYGQPKQAPPADFIPAHVAFDKKVLKFDAYFQEDVPMSTEEQYRIRQVNIYYYLEDDSMSVIEPVVENSGILQGKLIKRQRLAKNDRGDHYHWKDLNRGINITIYGKTFRVVDCDQFTQVFLESQGIELNPPEKMALDPYTELRKQPLRKYVTPSDFDQLKQFLTFDKQVLRFYAIWDDTDSMYGECRTYIIHYYLMDDTVEIREVHERNDGRDPFPLLMNRQRVPKVLVENAKNFPQCVLEISDQEVLEWYTAKDFIVGKSLTILGRTFFIYDCDPFTRRYYKEKFGITDLPRIDVSKREPPPVKQELPPYNGFGLVEDSAQNCFALIPKAPKKDVIKMLVNDNKVLRYLAVLESPIPEDKDRRFVFSYFLATDMISIFEPPVRNSGIIGGKYLGRTKVVKPYSTVDNPVYYGPSDFFIGAVIEVFGHRFIILDTDEYVLKYMESNAAQYSPEALASIQNHVRKREAPAPEAESKQTEKDPGVQELEALIDTIQKQLKDHSCKDNIREAFQIYDKEASGYVDRDMFFKICESLNVPVDDSLVKELIRMCSHGEGKINYYNFVRAFSN
# partner: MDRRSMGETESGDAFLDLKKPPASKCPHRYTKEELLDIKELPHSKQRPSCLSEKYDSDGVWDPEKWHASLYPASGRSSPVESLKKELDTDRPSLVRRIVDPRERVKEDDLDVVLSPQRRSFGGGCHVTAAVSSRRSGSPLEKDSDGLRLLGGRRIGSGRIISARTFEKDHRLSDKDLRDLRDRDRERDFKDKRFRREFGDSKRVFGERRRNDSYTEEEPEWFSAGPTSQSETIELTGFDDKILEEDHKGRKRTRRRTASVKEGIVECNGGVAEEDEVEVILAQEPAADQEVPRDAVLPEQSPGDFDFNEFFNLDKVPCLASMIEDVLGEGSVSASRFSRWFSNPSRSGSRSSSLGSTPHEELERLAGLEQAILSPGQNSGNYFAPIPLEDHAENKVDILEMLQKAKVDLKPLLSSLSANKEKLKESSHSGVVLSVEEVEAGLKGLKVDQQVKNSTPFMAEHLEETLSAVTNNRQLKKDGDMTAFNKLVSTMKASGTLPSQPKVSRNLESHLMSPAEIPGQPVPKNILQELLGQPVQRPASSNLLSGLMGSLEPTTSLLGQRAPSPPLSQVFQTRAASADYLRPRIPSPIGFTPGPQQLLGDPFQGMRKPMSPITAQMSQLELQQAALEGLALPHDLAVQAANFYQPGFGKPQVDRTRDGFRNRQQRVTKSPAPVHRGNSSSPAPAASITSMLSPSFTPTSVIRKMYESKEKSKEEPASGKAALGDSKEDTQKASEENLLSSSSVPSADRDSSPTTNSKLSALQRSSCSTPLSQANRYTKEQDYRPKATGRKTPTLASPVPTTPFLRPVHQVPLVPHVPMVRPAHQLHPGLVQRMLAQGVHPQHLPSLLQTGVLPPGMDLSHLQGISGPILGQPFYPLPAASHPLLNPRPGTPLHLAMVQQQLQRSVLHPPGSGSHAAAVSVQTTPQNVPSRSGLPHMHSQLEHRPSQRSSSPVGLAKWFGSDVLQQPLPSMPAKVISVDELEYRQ
# B5: Chorion-specific transcription factor GCMb (Homo sapiens), O75603 (parent)
# chain: MPAAAVQEAVGVCSYGMQLSWDINDPQMPQELALFDQFREWPDGYVRFIYSSDEKKAQRHLSGWAMRNTNNHNGHILKKSCLGVVVCTQACTLPDGSRLQLRPAICDKARLKQQKKACPNCHSALELIPCRGHSGYPVTNFWRLDGNAIFFQAKGVHDHPRPESKSETEARRSAIKRQMASFYQPQKKRIRESEAEENQDSSGHFSNIPPLENPEDFDIVTETSFPIPGQPCPSFPKSDVYKATCDLATFQGDKMPPFQKYSSPRIYLPRPPCSYELANPGYTNSSPYPTLYKDSTSIPNDTDWVHLNTLQCNVNSYSSYERSFDFTNKQHGWKPALGKPSLVERTNHGQFQAMATRPYYNPELPCRYLTTPPPGAPALQTVITTTTKVSYQAYQPPAMKYSDSVREVKSLSSCNYAPEDTGMSVYPEPWGPPVTVTRAASPSGPPPMKIAGDCRAIRPTVAIPHEPVSSRTDEAETWDVCLSGLGSAVSYSDRVGPFFTYNNEDF
# partner: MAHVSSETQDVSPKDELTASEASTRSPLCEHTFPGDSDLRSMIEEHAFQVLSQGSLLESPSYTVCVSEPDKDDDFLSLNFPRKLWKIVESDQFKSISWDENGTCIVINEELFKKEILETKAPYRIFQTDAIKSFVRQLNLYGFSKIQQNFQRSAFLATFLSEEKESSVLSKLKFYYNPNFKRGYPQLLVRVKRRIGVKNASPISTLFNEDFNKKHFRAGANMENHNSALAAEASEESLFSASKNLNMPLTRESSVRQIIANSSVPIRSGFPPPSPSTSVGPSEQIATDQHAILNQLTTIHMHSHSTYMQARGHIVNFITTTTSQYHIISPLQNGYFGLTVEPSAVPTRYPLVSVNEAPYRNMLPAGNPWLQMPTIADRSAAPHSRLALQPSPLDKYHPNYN
# Variants of: B1
# Conditions: with cr3l1_human CREB3L1, Q96BA8
row,effect of a mutation on the interaction,Variant
1,disrupting interaction,E276W

# Variants of: B2
# Conditions: with krt38_human KRT38, O76015
row,effect of a mutation on the interaction,Variant
1,disrupting interaction,I477N

# Variants of: B3
# Conditions: with KRT19, P08727
# Chain of KRT19, P08727 (P08727 whole entry): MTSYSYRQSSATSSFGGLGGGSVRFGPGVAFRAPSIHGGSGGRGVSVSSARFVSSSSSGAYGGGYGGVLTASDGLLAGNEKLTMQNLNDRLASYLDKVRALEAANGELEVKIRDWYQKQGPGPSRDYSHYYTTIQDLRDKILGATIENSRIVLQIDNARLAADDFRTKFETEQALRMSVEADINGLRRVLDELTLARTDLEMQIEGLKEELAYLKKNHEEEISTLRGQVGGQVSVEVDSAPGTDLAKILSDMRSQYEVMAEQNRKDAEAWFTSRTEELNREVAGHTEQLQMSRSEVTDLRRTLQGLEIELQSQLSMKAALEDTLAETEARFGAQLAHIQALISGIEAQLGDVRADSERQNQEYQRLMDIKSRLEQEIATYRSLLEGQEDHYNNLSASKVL
row,effect of a mutation on the interaction,Variant
1,disrupting interaction,I477N

# Variants of: B4
# Conditions: with 4et_human EIF4ENIF1, Q9NRA8
row,effect of a mutation on the interaction,Variant
1,disrupting interaction,P77T

# Variants of: B4
# Conditions: with 4et_human EIF4ENIF1, Q9NRA8
# Remark: another data set of the same source
row,effect of a mutation on the interaction,Variant
1,disrupting interaction,A394S

# Variants of: B4
# Conditions: with 4et_human EIF4ENIF1, Q9NRA8
# Remark: another data set of the same source
row,effect of a mutation on the interaction,Variant
1,disrupting interaction,R221H

# Variants of: B4
# Conditions: with 4et_human EIF4ENIF1, Q9NRA8
# Remark: another data set of the same source
row,effect of a mutation on the interaction,Variant
1,disrupting interaction,T508R

# Variants of: B5
# Conditions: with hsfy1_human HSFY1, Q96LI6
row,effect of a mutation on the interaction,Variant
1,disrupting interaction,R47L
